Key:
[1] = molecular target: T1, MUC1 tandem repeat peptide APPAHGVTSAPD-T(X)-RPAPGSTAPPAHGVTSA with sialylated GalNAcalpha (sTn) at T (human, sialylated GalNAcalpha (sTn) O-glycan on the threonine of PDTR; biotinylated); assay: antigen ELISA on sTn-glycosylated PDTR MUC1 peptide [panel Binding to sTn-MUC1 peptide]
T1 construct: also called sTn-PDTR MUC1 peptide
T1 peptide: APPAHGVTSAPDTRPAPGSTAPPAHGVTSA

[2] = molecular target: T2, biotinylated TA-MUC1 peptides (Example 4b); assay: fluorescence proximity sensing (DRX2 switchSENSE), biotinylated peptide captured by streptavidin
T2 construct: also called antigen peptide
Text: (§1) A new method to determine binding constants and affinity is the fluorescence proximity sensing using single stranded DNA (96mer) spotted on a chip and complementary DNA coupled to a ligand. In the present study streptavidin was used as a ligand to capture biotinylated TA-MUC1 peptides. […] On- and off-rates can be calculated during association and dissociation. Due to a higher sensitivity faster interactions can be monitored compared to surface plasmon resonance.
(§2) PankoMab and PM-N54Q were diluted from 300 nM in 1:9 steps to 3.67 nM in PE140 buffer and applied to the chip-bound peptides. Binding curves were evaluated by mono-exponential global fit (instrument software). Binding curves of PM and PM-N54Q are exemplarily shown in FIGS. 3A and B. Calculated affinities of PankoMab variants are shown in Table 2: […]

[3] = molecular target: T3, His-tagged FcγRIIIa (Glycotope GmbH) (UniProt P08637 17-208, limits assumed); assay: AlphaScreen competition, low-fucosylated antibody; His-tagged FcγRIIIa on Ni-chelate donor beads, competitor rabbit-anti-mouse coupled acceptor beads
T3 construct: also called Fcγ receptor IIIa; CD16a; not shown: His tag
Text: For the receptor binding assays, His-tagged FcγRIIIa (Glycotope GmbH) is captured by Ni-chelate donor beads. Anti-MUC1 antibodies and rabbit-anti-mouse coupled acceptor beads compete for binding to FcγR. In case of interaction of FcγR with rabbit-anti-mouse-bound acceptor beads, donor and acceptor beads come into close proximity which leads, upon laser excitation at 680 nm, to light emission. A maximum signal is achieved (signalₘₐₓ) without a competitor. In case of competition, where a test antibody binds to FcγR, the signalₘₐₓ is reduced in a concentration-dependent manner. Chemiluminescence was quantified by measurement at 520-620 nm (AlphaScreen® method) using an EnSpire 2300 multilabel reader (PerkinElmer). All results were expressed as the mean±standard deviation of duplicate samples. The data were evaluated and calculated using non-linear curve fitting (sigmoidal dose-response variable slope) with GraphPad Prism 5 software. As a result, a concentration dependent sigmoidal curve was obtained, which is defined by top-plateau, bottom-plateau, slope and EC₅₀.

[4] = molecular target: T4, MUC1 tandem repeat peptide APPAHGVTSAPD-T(X)-RPAPGSTAPPAHGVTSA with sialylated TF (sTF) at T (human, not fully specified; sialylated TF (sTF) O-glycan on the threonine of PDTR; biotinylated); assay: antigen ELISA on sTF-glycosylated PDTR MUC1 peptide [panel Binding to sTF-MUC1 peptide]
T4 construct: also called sTF-PDTR MUC1 peptide
T4 peptide: T1 peptide

[5] = molecular target: T5, MUC1 tandem repeat peptide APPAHGVTSAPD-T(X)-RPAPGSTAPPAHGVTSA with Galβ1-3GalNAcalpha (TF) at T (human, Galβ1-3GalNAcalpha (TF) O-glycan on the threonine of PDTR; biotinylated); assay: antigen ELISA on TF-PDTR MUC1 peptide, purified antibody [panel Binding to TF-MUC1]
T5 construct: also called TF-PDTR MUC1 peptide; TF-MUC1 peptide
T5 peptide: T1 peptide

[6] = molecular target: T5, MUC1 tandem repeat peptide …; assay: antigen ELISA on TF-glycosylated PDTR MUC1 peptide [panel Binding to TF-MUC1 peptide]
[7] = molecular target: T6, MUC1 tandem repeat peptide APPAHGVTSAPD-T(X)-RPAPGSTAPPAHGVTSA with GalNAcalpha (Tn) at T (human, GalNAcalpha (Tn) O-glycan on the threonine of PDTR; biotinylated); assay: SPR (Biacore), biotinylated peptide on streptavidin chip, steady-state fit of maximal RU
T6 construct: also called Tn-PDTR MUC1 peptide; Tn-MUC1 peptide
T6 peptide: T1 peptide
Experimental: (§3) Binding of the Fab-deglycosylated version of the MUC1-specific antibody PankoMab (PM-N54Q) on TA-MUC-1 derived glycosylated peptide was evaluated by surface plasmon resonance analysis (Biacore). A streptavidin sensor chip was coated with biotinylated TA-MUC1 peptide (Tn glycosylated or not glycosylated). PankoMab and PM-N54Q were diluted sequentially 1:3 from 3,600 to 4.9 nM in HPS-EP. The dilutions were injected at 50 μL/min. Maximal binding of each concentration was determined as response units (RU), respectively, and evaluated with GraphPad Prism using “one-site specific binding”. […] Therefore, in this experimental setting a nearly two-fold increase in affinity was detectable.

[8] = molecular target: T6, MUC1 tandem repeat peptide …; assay: antigen ELISA on Tn-PDTR MUC1 peptide, purified antibody [panel Binding to Tn-MUC1]
[9] = molecular target: T5, MUC1 tandem repeat peptide …; assay: TA-MUC1 antigen ELISA, biotinylated glycopeptide
[10] = molecular target: T4, MUC1 tandem repeat peptide …; assay: TA-MUC1 antigen ELISA, biotinylated glycopeptide
[11] = molecular target: T1, MUC1 tandem repeat peptide …; assay: TA-MUC1 antigen ELISA, biotinylated glycopeptide
[12] = molecular target: T6, MUC1 tandem repeat peptide …; assay: TA-MUC1 antigen ELISA, biotinylated glycopeptide
[13] = molecular target: T2, biotinylated TA-MUC1 peptides (Example …); assay: fluorescence proximity sensing (DRX, switchSENSE), biotinylated TA-MUC1 peptide captured by streptavidin; antibody at 3.7, 33.3 and 300 nM
Text: as §1, §2

[14] = molecular target: T6, MUC1 tandem repeat peptide …; assay: antigen ELISA on Tn-glycosylated PDTR MUC1 peptide
[15] = molecular target: T6, MUC1 tandem repeat peptide …; assay: antigen ELISA on Tn-glycosylated PDTR MUC1 peptide [panel Binding to Tn-MUC1 peptide]
[16] = molecular target: T6, MUC1 tandem repeat peptide …; assay: SPR (Biacore), biotinylated peptide on streptavidin chip
Experimental: as §3

T3 sequence (P08637 17-208 limits assumed): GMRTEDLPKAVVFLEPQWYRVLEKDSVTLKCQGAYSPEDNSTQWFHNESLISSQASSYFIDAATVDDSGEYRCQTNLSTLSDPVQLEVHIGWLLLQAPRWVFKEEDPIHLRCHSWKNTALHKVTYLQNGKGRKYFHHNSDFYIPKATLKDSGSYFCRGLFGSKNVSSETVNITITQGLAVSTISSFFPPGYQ

B1: humanized antibody PankoMab N54Q (without Fab glycosylation) (antibody, human IgG1, kappa)
heavy: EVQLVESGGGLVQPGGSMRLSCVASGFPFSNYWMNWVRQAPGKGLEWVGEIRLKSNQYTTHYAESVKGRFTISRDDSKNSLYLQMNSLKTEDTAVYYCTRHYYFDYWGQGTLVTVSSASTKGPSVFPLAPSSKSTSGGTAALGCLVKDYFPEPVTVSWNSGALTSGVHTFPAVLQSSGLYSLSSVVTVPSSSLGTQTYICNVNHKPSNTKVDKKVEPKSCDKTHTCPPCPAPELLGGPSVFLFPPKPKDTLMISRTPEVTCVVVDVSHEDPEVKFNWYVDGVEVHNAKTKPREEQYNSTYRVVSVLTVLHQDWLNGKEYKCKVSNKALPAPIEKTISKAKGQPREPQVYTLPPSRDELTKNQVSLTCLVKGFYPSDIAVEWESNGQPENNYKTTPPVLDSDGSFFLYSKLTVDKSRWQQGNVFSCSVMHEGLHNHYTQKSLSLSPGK
light: DIVMTQSPLSNPVTPGEPASISCRSSKSLLHSNGITYFFWYLQKPGQSPQLLIYQMSNLASGVPDRFSGSGSGTDFTLRISRVEAEDVGVYYCAQNLELPPTFGQGTKVEIKRTVAAPSVFIFPPSDEQLKSGTASVVCLLNNFYPREAKVQWKVDNALQSGNSQESVTEQDSKDSTYSLSSTLTLSKADYEKHKVYACEVTHQGLSSPVTKSFNRGEC
notes: IgG1 kappa; Made in NM-H9D8 cells (for the FcγRIIIa assay also in NM-H9D8-E6Q12, low fucose); also called PM-N54Q; PM N54Q w/o Fab glyc
EC50 (read off the curve) [1]: ~100 ng/mL | Kd [2]: 1.6 nM | IC50 (read off the curve) [3]: ~4000 ng/mL | EC50 (read off the curve) [4]: ~10 ng/mL | EC50 (read off the curve) [5]: ~10 ng/mL | EC50 (read off the curve) [6]: ~10 ng/mL | Kd [7]: 388 nM | EC50 (read off the curve) [8]: ~10 ng/mL | fold better binding compared to PankoMab-GEX® [9]: 2 fold | fold better binding compared to PankoMab-GEX® [10]: 2 fold | fold better binding compared to PankoMab-GEX® [11]: ~7 fold | fold higher binding compared to PankoMab-GEX® [12]: 4 fold | Kd [13]: 1.63 nM | koff [13]: 0.0109 s⁻¹ | kon [13]: 6.7e+06 M⁻¹ s⁻¹ | EC50 (read off the curve) [14]: ~20 ng/mL | EC50 (read off the curve) [15]: ~10 ng/mL | fold increase in affinity compared to PankoMab-GEX® [16]: ~2 fold
